B1: Nb207 (VHH)
VHH: QVQLVESGGGLVQAGGSLRLSCAASGRTFSTAAMGWFRQAPGKERDFVAGIYWTVGSTYYADSAKGRFTISRDNAKNTVYLQMDSLKPEDTAVYYCAARRRGFTLAPTRANEYDYWGQGTQVTVSS
B2: Nb394 (VHH)
VHH: QVQLVESGGGLVQAGGSLRLSCAASGRTFSVSNMGWFRQAPGKERVFVAAIGWTTGSTYYADSVKGRFTISRDNTKNTVYLQMNSLKPEDTAVYRCAARRRGYSRVPMTPDEYEYWGQGTQVTVSS
B3: Nb395 (VHH)
VHH: QVQLVESGGGLVQTGDSLRLSCAASLRTFKSYAMGWFRQAPGKEREAVATISAEGDSTYYDDSVKGRFTISRDNAANTVYLQMNSLKPEDTAVYYCAASRFPYGLRLLQRRESDYWGQGTQVTVSS

biological target: Green Fluorescent Protein (GFP), biotinylated (biotin (EZ-Link NHS-PEG4-Biotin)); assay: BLI

Binding result, binds:
B1
B2
B3

From article doi:10.1101/2024.06.26.600780 (bioRxiv, 2024)
